One substance from patent US20150353911 can be followed below.

Regarding thrombin, the “release of peptide IVGGQE with 1.4 nM thrombin (HPLC)” value in the series with Compound 6 is listed as “thrombin-mediated release of peptide IVGGQE from Compound 6 without PABC linker was not observed”. The “cleavage rate with 14 nM thrombin (HPLC, decrease of peptide peak area)” value in the series with Compound 1 is listed as “at least 10-fold increase in cleavage rate compared to that of Compound 2”. Further, in the series on Compound 1, the “fraction cleaved and released with 1.4 nM thrombin (HPLC)” value was 30% of Compound 1 was quickly cleaved and released. The “cleavage by 1.4 nM thrombin (HPLC)” value with Compound 5 was “Compound 1 was a better substrate for thrombin than Compounds 4 and 5”; in the series on Compound 4 it was “Compound 1 was a better substrate for thrombin than Compounds 4 and 5”. In addition, the “clotting activity by ROTEM in human hemophilia A blood” value in the series on FVII-184 is listed as “Inactivating the thrombin cleavage site of FVII133 considerably reduced the activity; as the activity of FVII-184, which only became detectable at 50 nM, was much lower than that of FVIIa”. Further, the “amidolytic activity (chromozyme t-PA substrate) before and after thrombin activation” value in the series on FVII-133 is “FVII-212 displayed no activity prior to thrombin activation. Following thrombin activation, the amidolytic activity associated with FVII-212 was greater than that observed for equal molar levels of rFVIIa”.
